Assay results as given in US20030148956A1 (PROCTER AND GAMBLE, published 2003).
Blank lines part the entries; values can stand above or below the binder they belong to. Ends that are not written are not given here.

Assays:
CRF2R = target: T1, CRF2R; experiment: cell-based or functional assay
T1 sequence (Q13324 whole entry, species assumed, looked up): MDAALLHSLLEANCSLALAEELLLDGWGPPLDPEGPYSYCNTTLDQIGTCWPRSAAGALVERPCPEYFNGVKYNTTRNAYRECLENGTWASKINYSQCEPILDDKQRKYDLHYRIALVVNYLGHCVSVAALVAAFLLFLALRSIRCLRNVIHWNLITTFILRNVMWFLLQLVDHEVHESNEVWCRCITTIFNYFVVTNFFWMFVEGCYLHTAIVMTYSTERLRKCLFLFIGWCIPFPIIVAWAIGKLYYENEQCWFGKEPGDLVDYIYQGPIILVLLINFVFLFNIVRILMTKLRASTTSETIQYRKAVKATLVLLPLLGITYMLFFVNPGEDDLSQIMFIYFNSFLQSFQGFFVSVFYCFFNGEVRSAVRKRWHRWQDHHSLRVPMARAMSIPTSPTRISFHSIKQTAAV

CRF1R = experiment: cell-based or functional assay

B1: SEQ ID NO 58 (peptide)
peptide: ZGPPISIDLPKYLLRKMIEIEKQEKEKQQAANNRLLLDTI
modifications: C-terminal amide
- CRF2R EC50 (CRF2R): 0.0716 µM
- CRF2R Emax (CRF2R): 100%
- CRF1R EC50 (CRF1R): > 0.1 µM
- CRF1R Emax (CRF1R): 16%

B3: SEQ ID NO 67 (peptide)
peptide: ZGPPISIDLPFELLRKMIEIEKQEKEKQQAANNRLLLDTI
modifications: C-terminal amide
- CRF2R EC50 (CRF2R): 0.01 µM
- CRF2R Emax (CRF2R): 50%
- CRF1R EC50 (CRF1R): 0.0442 µM
- CRF1R Emax (CRF1R): 96%

B4: SEQ ID NO 64 (peptide)
peptide: ZGPPISIDLPNYLLRKMIEIEKQEKEKQQAANNRLLLDTI
modifications: C-terminal amide
- CRF2R EC50 (CRF2R): 0.0633 µM
- CRF2R Emax (CRF2R): 94%
- CRF1R EC50 (CRF1R): 0.0689 µM
- CRF1R Emax (CRF1R): 57%

B6: SEQ ID NO 61 (peptide)
peptide: ZGPPISIDLPTALLRKMIEIEKQEKEKQQAANNRLLLDTI
modifications: C-terminal amide
- CRF2R EC50 (CRF2R): > 0.1 µM
- CRF2R Emax (CRF2R): 89%
- CRF1R EC50 (CRF1R): > 0.1 µM
- CRF1R Emax (CRF1R): 12%

B9: SEQ ID NO 71 (peptide)
peptide: ZGPPISIDLPTELLRKMIEIEKQEKEKQQAANNRLLLDTI
modifications: C-terminal amide
- CRF2R EC50 (CRF2R): 0.0948 µM
- CRF2R Emax (CRF2R): 56%
- CRF1R EC50 (CRF1R): > 0.1 µM
- CRF1R Emax (CRF1R): 6%

B15: SEQ ID NO 1 (peptide)
peptide: IVLSLDVPIGLLQELLEMARAEQLAQQAHSNRKLMEII-NH2
- CRF2R EC50 (CRF2R): 0.0315 µM
- CRF2R Emax (CRF2R): 10%
- CRF1R EC50 (CRF1R): 0.783 µM
- CRF1R Emax (CRF1R): 64%

Other lines, results leading:

- CRF2R EC50 (CRF2R): > 0.1 µM
- CRF2R Emax (CRF2R): 44%
- CRF1R EC50 (CRF1R): > 0.1 µM
- CRF1R Emax (CRF1R): 8%
B2: SEQ ID NO 60 (peptide)
peptide: ZGPPISIDLPTRLLRKMIEIEKQEKEKQQAANNRLLLDTI
modifications: C-terminal amide

- CRF2R EC50 (CRF2R): 0.0182 µM
- CRF2R Emax (CRF2R): 82%
- CRF1R EC50 (CRF1R): > 0.1 µM
- CRF1R Emax (CRF1R): 8%
B5: SEQ ID NO 70 (peptide)
peptide: ZGPPISIDLPTYLLRKMIEIEKQEKEKQQAANNRLLLDTI
modifications: C-terminal amide

- CRF2R EC50 (CRF2R): 0.0679 µM
- CRF2R Emax (CRF2R): 64%
- CRF1R EC50 (CRF1R): > 0.1 µM
- CRF1R Emax (CRF1R): 16%
B7: SEQ ID NO 65 (peptide)
peptide: ZGPPISIDLPRYLLRKMIEIEKQEKEKQQAANNRLLLDTI
modifications: C-terminal amide

- CRF2R EC50 (CRF2R): > 0.1 µM
- CRF2R Emax (CRF2R): 11%
- CRF1R EC50 (CRF1R): > 0.1 µM
- CRF1R Emax (CRF1R): 11%
B8: SEQ ID NO 73 (peptide)
peptide: ZGPPISIDLPTGLLRKMIEIEKQEKEKQQAANNRLLLDTI
modifications: C-terminal amide

- CRF2R EC50 (CRF2R): 0.00585 µM
- CRF2R Emax (CRF2R): 81%
- CRF1R EC50 (CRF1R): 0.0345 µM
- CRF1R Emax (CRF1R): 88%
B10: SEQ ID NO 69 (peptide)
peptide: ZGPPISIDLPFHLLRKMIEIEKQEKEKQQAANNRLLLDTI
modifications: C-terminal amide

- CRF2R EC50 (CRF2R): 0.0386 µM
- CRF2R Emax (CRF2R): 74%
- CRF1R EC50 (CRF1R): > 0.1 µM
- CRF1R Emax (CRF1R): 33%
B11: SEQ ID NO 68 (peptide)
peptide: ZGPPISIDLPFGLLRKMIEIEKQEKEKQQAANNRLLLDTI
modifications: C-terminal amide

- CRF2R EC50 (CRF2R): > 0.1 µM
- CRF2R Emax (CRF2R): 27%
- CRF1R EC50 (CRF1R): > 0.1 µM
- CRF1R Emax (CRF1R): 10%
B12: SEQ ID NO 59 (peptide)
peptide: ZGPPISIDLPTNLLRKMIEIEKQEKEKQQAANNRLLLDTI
modifications: C-terminal amide

- CRF2R EC50 (CRF2R): 0.0673 µM
- CRF2R Emax (CRF2R): 100%
- CRF1R EC50 (CRF1R): 0.0732 µM
- CRF1R Emax (CRF1R): 34%
B13: SEQ ID NO 63 (peptide)
peptide: ZGPPISIDLPGYLLRKMIEIEKQEKEKQQAANNRLLLDTI
modifications: C-terminal amide

- CRF2R EC50 (CRF2R): > 0.1 µM
- CRF2R Emax (CRF2R): 55%
- CRF1R EC50 (CRF1R): > 0.1 µM
- CRF1R Emax (CRF1R): 4%
B14: SEQ ID NO 72 (peptide)
peptide: ZGPPISIDLPTQLLRKMIEIEKQEKEKQQAANNRLLLDTI
modifications: C-terminal amide
